Values of other authors, collected in article PMC5399307.

Molecular target: ezrin FERM (Homo sapiens) (UniProt P15311)
Chain of UniProt P15311 (P15311 1-299): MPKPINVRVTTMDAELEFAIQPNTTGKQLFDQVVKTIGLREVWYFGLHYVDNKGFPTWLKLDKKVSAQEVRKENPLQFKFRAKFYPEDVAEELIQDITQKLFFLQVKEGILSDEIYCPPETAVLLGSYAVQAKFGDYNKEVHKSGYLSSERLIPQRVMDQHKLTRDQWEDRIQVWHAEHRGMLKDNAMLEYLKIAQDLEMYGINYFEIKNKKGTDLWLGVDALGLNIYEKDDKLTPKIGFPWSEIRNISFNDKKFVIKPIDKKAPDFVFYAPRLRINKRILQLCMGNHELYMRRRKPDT

NHERF1 (from UniProt O14745)
Kd: 0.051 µM
